Experiments:
[1] = system: HeLa Kyoto; assay: solubility in G1/S (NP-40 vs SDS abundance) (log2 ratio); higher = more soluble; details: cell cycle stage: G1/S
[2] = system: HeLa Kyoto; assay: melting temperature (median over replicates), in situ; higher = more thermally stable
[3] = system: HeLa Kyoto; assay: solubility change mitosis vs G1/S (difference of NP-40 vs SDS log2 ratios) (log2 ratio difference); higher = more soluble in mitosis
[4] = system: HeLa Kyoto; assay: thermal stability score vs G1/S (z-score of summed log2 fold changes over temperatures); higher = more thermally stable than in G1/S
[5] = cell cycle stage: early G1 (4.5 h after nocodazole release)
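Wherever melting temperature (median over replicates), in situ is given: HeLa Kyoto cells synchronized by double thymidine or nocodazole block, proteins quantified by TMT10plex mass spectrometry, three independent biological replicates.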
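Wherever solubility change mitosis vs G1/S (difference of NP-40 vs SDS log2 ratios) is given: synchronized HeLa Kyoto cells (double thymidine block for G1/S, nocodazole release for mitosis), protein amounts in NP-40 versus SDS lysates quantified by mass spectrometry, three biological replicates.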
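Wherever solubility in G1/S (NP-40 vs SDS abundance) is given: HeLa Kyoto cells arrested at G1/S by double thymidine block, proteins quantified by TMT10plex mass spectrometry in mild NP-40 versus SDS extracts, three biological replicates.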
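Wherever thermal stability score vs G1/S (z-score of summed log2 fold changes over temperatures) is given: synchronized HeLa Kyoto cells, proteins quantified by TMT10plex mass spectrometry, three biological replicates, mitosis taken 0.5 h after nocodazole release, G1/S directly after double thymidine block.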

Sequence	solubility in G1/S (log2) [1]	melting temperature ([2]; cell cycle stage: G1/S) [°C]	melting temperature ([2]; cell cycle stage: mitosis) [°C]	solubility change mitosis (log2) [3]	thermal stability score [4, 5]	thermal stability score ([4]; cell cycle stage: mitosis)
MSSSPWEPATLRRVFVVGVGMTKFVKPGAENSRDYPDLAEEAGKKALADAQIPYSAVDQACVGYVFGDSTCGQRAIYHSLGMTGIPIINVNNNCATGSTALFMARQLIQGGVAECVLALGFEKMSKGSLGIKFSDRTIPTDKHVDLLINKYGLSAHPVAPQMFGYAGKEHMEKYGTKIEHFAKIGWKNHKHSVNNPYSQFQDEYSLDEVMASKEVFDFLTILQCCPTSDGAAAAILASEAFVQKYGLQSKAVEILAQEMMTDLPSSFEEKSIIKMVGFDMSKEAARKCYEKSGLTPNDIDVIELHDCFSTNELLTYEALGLCPEGQGATLVDRGDNTYGGKWVINPSGGLISKGHPLGATGLAQCAELCWQLRGEAGKRQVPGAKVALQHNLGIGGAVVVTLYKMGFPEAASSFRTHQIEAVPTSSASDGFKANLVFKEIEKKLEEEGEQFVKKIGGIFAFKVKDGPGGKEATWVVDVKNGKGSVLPNSDKKADCTITMADSDFLALMTGKMNPQSAFFQGKLKITGNMGLAMKLQNLQLQPGNAKL [SCP2]	0.587	54.5	54.4	0.135	-1.44	-2.06
MSSVQQQPPPPRRVTNVGSLLLTPQENESLFTFLGKKCVTMSSAVVQLYAADRNCMWSKKCSGVACLVKDNPQRSYFLRIFDIKDGKLLWEQELYNNFVYNSPRGYFHTFAGDTCQVALNFANEEEAKKFRKAVTDLLGRRQRKSEKRRDPPNGPNLPMATVDIKNPEITTNRFYGPQVNNISHTKEKKKGKAKKKRLTKADIGTPSNFQHIGHVGWDPNTGFDLNNLDPELKNLFDMCGISEAQLKDRETSKVIYDFIEKTGGVEAVKNELRRQAPPPPPPSRGGPPPPPPPPHNSGPPPPPARGRGAPPPPPSRAPTAAPPPPPPSRPSVAVPPPPPNRMYPPPPPALPSSAPSGPPPPPPSVLGVGPVAPPPPPPPPPPPGPPPPPGLPSDGDHQVPTTAGNKAALLDQIREGAQLKKVEQNSRPVSCSGRDALLDQIRQGIQLKSVADGQESTPPTPAPTSGIVGALMEVMQKRSKAIHSSDEDEDEDDEEDFEDDDEWED [WASL]	0.303	50.7	51.3	-0.121	0.0343	1.24
MSTAAVPELKQISRVEAMRLGPGWSHSCHAMLYAANPGQLFGRIPMRFSVLMQMRFDGLLGFPGGFVDRRFWSLEDGLNRVLGLGLGCLRLTEADYLSSHLTEGPHRVVAHLYARQLTLEQLHAVEISAVHSRDHGLEVLGLVRVPLYTQKDRVGGFPNFLSNAFVSTAKCQLLFALKVLNMMPEEKLVEALAAATEKQKKALEKLLPASS [NUDT16L1]	-0.521	52	52.3	0.104	-0.0688	-2.32
MSTEGGFGGTSSSDAQQSLQSFWPRVMEEIRNLTVKDFRVQELPLARIKKIMKLDEDVKMISAEAPVLFAKAAQIFITELTLRAWIHTEDNKRRTLQRNDIAMAITKFDQFDFLIDIVPRDELKPPKRQEEVRQSVTPAEPVQYYFTLAQQPTAVQVQGQQQGQQTTSSTTTIQPGQIIIAQPQQGQTTPVTMQVGEGQQVQIVQAQPQGQAQQAQSGTGQTMQVMQQIITNTGEIQQIPVQLNAGQLQYIRLAQPVSGTQVVQGQIQTLATNAQQGQRNASQGKPRRCLKETLQITQTEVQQGQQQFSQFTDGQRNSVQQARVSELTGEAEPREVKATGNSTPCTSSLPTTHPPSHRAGASCVCCSQPQQSSTSPPPSDALQWVVVEVSGTPNQLETHRELHAPLPGMTSLSPLHPSQQLYQIQQVTMPAGQDLAQPMFIQSANQPSDGQAPQVTGD [NFYC]	0.266	54.7	54.3	-0.174	-0.186	-0.549
MSTGGDFGNPLRKFKLVFLGEQSVGKTSLITRFMYDSFDNTYQATIGIDFLSKTMYLEDRTVRLQLWDTAGQERFRSLIPSYIRDSTVAVVVYDITNVNSFQQTTKWIDDVRTERGSDVIIMLVGNKTDLADKRQVSIEEGERKAKELNVMFIETSAKAGYNVKQLFRRVAAALPGMESTQDRSREDMIDIKLEKPQEQPVSEGGCSC [RAB6A]	-0.0491	56.5	57.1	-0.0808	-2.97	-6.05
MSTKQITCRYFMHGVCREGSQCLFSHDLANSKPSTICKYYQKGYCAYGTRCRYDHTRPSAAAGGAVGTMAHSVPSPAFHSPHPPSEVTASIVKTNSHEPGKREKRTLVLRDRNLSGMAERKTQPSMVSNPGSCSDPQPSPEMKPHSYLDAIRSGLDDVEASSSYSNEQQLCPYAAAGECRFGDACVYLHGEVCEICRLQVLHPFDPEQRKAHEKICMLTFEHEMEKAFAFQASQDKVCSICMEVILEKASASERRFGILSNCNHTYCLSCIRQWRCAKQFENPIIKSCPECRVISEFVIPSVYWVEDQNKKNELIEAFKQGMGKKACKYFEQGKGTCPFGSKCLYRHAYPDGRLAEPEKPRKQLSSQGTVRFFNSVRLWDFIENRESRHVPNNEDVDMTELGDLFMHLSGVESSEP [MKRN2]	0.161	46.5	48.6	-0.033	0.686	1.44
MSTSWSDRLQNAADMPANMDKHALKKYRREAYHRVFVNRSLAMEKIKCFGFDMDYTLAVYKSPEYESLGFELTVERLVSIGYPQELLSFAYDSTFPTRGLVFDTLYGNLLKVDAYGNLLVCAHGFNFIRGPETREQYPNKFIQRDDTERFYILNTLFNLPETYLLACLVDFFTNCPRYTSCETGFKDGDLFMSYRSMFQDVRDAVDWVHYKGSLKEKTVENLEKYVVKDGKLPLLLSRMKEVGKVFLATNSDYKYTDKIMTYLFDFPHGPKPGSSHRPWQSYFDLILVDARKPLFFGEGTVLRQVDTKTGKLKIGTYTGPLQHGIVYSGGSSDTICDLLGAKGKDILYIGDHIFGDILKSKKRQGWRTFLVIPELAQELHVWTDKSSLFEELQSLDIFLAELYKHLDSSSNERPDISSIQRRIKKVTHDMDMCYGMMGSLFRSGSRQTLFASQVMRYADLYAASFINLLYYPFSYLFRAAHVLMPHESTVEHTHVDINEMESPLATRNRTSVDFKDTDYKRHQLTRSISEIKPPNLFPLAPQEITHCHDEDDDEEEEEEEE [NT5C2]	-0.096	56.5	56.3	-0.133	-0.51	-1.23
MSVSLVVIRLELAEHSPVPAGFGFSAAAGEMSDEEIKKTTLASAVACLEGKSPGEKVAIIHQHLGRREMTDVIIETMKSNPDELKTTVEERKSSEASPTAQRSKDHSKECINAAPDSPSKQLPDQISFFSGNPSVEIVHGIMHLYKTNKMTSLKEDVRRSAMLCILTVPAAMTSHDLMKFVAPFNEVIEQMKIIRDSTPNQYMVLIKFRAQADADSFYMTCNGRQFNSIEDDVCQLVYVERAEVLKSEDGASLPVMDLTELPKCTVCLERMDESVNGILTTLCNHSFHSQCLQRWDDTTCPVCRYCQTPEPVEENKCFECGVQENLWICLICGHIGCGRYVSRHAYKHFEETQHTYAMQLTNHRVWDYAGDNYVHRLVASKTDGKIVQYECEGDTCQEEKIDALQLEYSYLLTSQLESQRIYWENKIVRIEKDTAEEINNMKTKFKETIEKCDNLEHKLNDLLKEKQSVERKCTQLNTKVAKLTNELKEEQEMNKCLRANQVLLQNKLKEEERVLKETCDQKDLQITEIQEQLRDVMFYLETQQKINHLPAETRQEIQEGQINIAMASASSPASSGGSGKLPSRKGRSKRGK [BRAP]	0.1	50.3	50.2	-0.181	0.558	1.83
MSVVGLDVGSQSCYIAVARAGGIETIANEFSDRCTPSVISFGSKNRTIGVAAKNQQITHANNTVSNFKRFHGRAFNDPFIQKEKENLSYDLVPLKNGGVGIKVMYMGEEHLFSVEQITAMLLTKLKETAENSLKKPVTDCVISVPSFFTDAERRSVLDAAQIVGLNCLRLMNDMTAVALNYGIYKQDLPSLDEKPRIVVFVDMGHSAFQVSACAFNKGKLKVLGTAFDPFLGGKNFDEKLVEHFCAEFKTKYKLDAKSKIRALLRLYQECEKLKKLMSSNSTDLPLNIECFMNDKDVSGKMNRSQFEELCAELLQKIEVPLYSLLEQTHLKVEDVSAVEIVGGATRIPAVKERIAKFFGKDISTTLNADEAVARGCALQCAILSPAFKVREFSVTDAVPFPISLIWNHDSEDTEGVHEVFSRNHAAPFSKVLTFLRRGPFELEAFYSDPQGVPYPEAKIGRFVVQNVSAQKDGEKSRVKVKVRVNTHGIFTISTASMVEKVPTEENEMSSEADMECLNQRPPENPDTDKNVQQDNSEAGTQPQVQTDAQQTSQSPPSPELTSEENKIPDADKANEKKVDQPPEAKKPKIKVVNVELPIEANLVWQLGKDLLNMYIETEGKMIMQDKLEKERNDAKNAVEEYVYEFRDKLCGPYEKFICEQDHQNFLRLLTETEDWLYEEGEDQAKQAYVDKLEELMKIGTPVKVRFQEAEERPKMFEELGQRLQHYAKIAADFRNKDEKYNHIDESEMKKVEKSVNEVMEWMNNVMNAQAKKSLDQDPVVRAQEIKTKIKELNNTCEPVVTQPKPKIESPKLERTPNGPNIDKKEEDLEDKNNFGAEPPHQNGECYPNEKNSVNMDLD [HSPH1]	0.203	50.2	49.7	-0.0593	1.34	1.52
MSWFNASQLSSFAKQALSQAQKSIDRVLDIQEEEPSIWAETIPYGEPGISSPVSGGWDTSTWGLKSNTEPQSPPIASPKAITKPVRRTVVDESENFFSAFLSPTDVQTIQKSPVVSKPPAKSQRPEEEVKSSLHESLHIGQSRTPETTESQVKDSSLCVSGETLAAGTSSPKTEGKHEETVNKESDMKVPTVSLKVSESVIDVKTTMESISNTSTQSLTAETKDIALEPKEQKHEDRQSNTPSPPVSTFSSGTSTTSDIEVLDHESVISESSASSRQETTDSKSSLHLMQTSFQLLSASACPEYNRLDDFQKLTESCCSSDAFERIDSFSVQSLDSRSVSEINSDDELSGKGYALVPIIVNSSTPKSKTVESAEGKSEEVNETLVIPTEEAEMEESGRSATPVNCEQPDILVSSTPINEGQTVLDKVAEQCEPAESQPEALSEKEDVCKTVEFLNEKLEKREAQLLSLSKEKALLEEAFDNLKDEMFRVKEESSSISSLKDEFTQRIAEAEKKVQLACKERDAAKKEIKNIKEELATRLNSSETADLLKEKDEQIRGLMEEGEKLSKQQLHNSNIIKKLRAKDKENENMVAKLNKKVKELEEELQHLKQVLDGKEEVEKQHRENIKKLNSMVERQEKDLGRLQVDMDELEEKNRSIQAALDSAYKELTDLHKANAAKDSEAQEAALSREMKAKEELSAALEKAQEEARQQQETLAIQVGDLRLALQRTEQAAARKEDYLRHEIGELQQRLQEAENRNQELSQSVSSTTRPLLRQIENLQATLGSQTSSWEKLEKNLSDRLGESQTLLAAAVERERAATEELLANKIQMSSMESQNSLLRQENSRFQAQLESEKNRLCKLEDENNRYQVELENLKDEYVRTLEETRKEKTLLNSQLEMERMKVEQERKKAIFTQETIKEKERKPFSVSSTPTMSRSSSISGVDMAGLQTSFLSQDESHDHSFGPMPISANGSNLYDAVRMGAGSSIIENLQSQLKLREGEITHLQLEIGNLEKTRSIMAEELVKLTNQNDELEEKVKEIPKLRTQLRDLDQRYNTILQMYGEKAEEAEELRLDLEDVKNMYKTQIDELLRQSLS [TMF1]	0.0833	54.5	54.4	-0.065	-2.48	-0.992

Source: the supplement of paper PMC5998384
